{
  "source": "paper PMC8229176",
  "biological_target": "ACE2 on ACE2-transfected HEK293 cells (UniProt Q9BYF1)",
  "sequence (Q9BYF1 18-805)": "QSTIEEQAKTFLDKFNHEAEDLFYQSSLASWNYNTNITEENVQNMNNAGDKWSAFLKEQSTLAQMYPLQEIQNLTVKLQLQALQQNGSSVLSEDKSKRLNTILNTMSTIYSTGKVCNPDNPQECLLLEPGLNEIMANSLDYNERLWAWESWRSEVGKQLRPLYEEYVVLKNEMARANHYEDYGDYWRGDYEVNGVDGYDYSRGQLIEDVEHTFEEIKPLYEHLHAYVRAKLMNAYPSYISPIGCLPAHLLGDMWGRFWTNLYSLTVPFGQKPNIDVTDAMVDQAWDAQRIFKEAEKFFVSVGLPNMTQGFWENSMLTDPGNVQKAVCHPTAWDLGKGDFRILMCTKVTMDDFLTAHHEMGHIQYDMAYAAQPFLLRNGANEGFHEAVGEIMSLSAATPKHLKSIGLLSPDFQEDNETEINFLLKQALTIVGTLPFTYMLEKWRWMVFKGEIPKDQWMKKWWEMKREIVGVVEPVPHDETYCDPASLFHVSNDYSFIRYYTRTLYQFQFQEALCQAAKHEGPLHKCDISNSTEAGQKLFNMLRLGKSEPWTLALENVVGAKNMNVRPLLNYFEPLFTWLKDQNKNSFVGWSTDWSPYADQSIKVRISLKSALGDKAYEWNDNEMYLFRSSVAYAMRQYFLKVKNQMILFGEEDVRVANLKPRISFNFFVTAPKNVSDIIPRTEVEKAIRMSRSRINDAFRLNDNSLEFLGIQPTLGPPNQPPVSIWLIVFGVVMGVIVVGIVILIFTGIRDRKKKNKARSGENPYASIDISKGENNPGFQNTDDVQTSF",
  "test": "flow cytometry on cells",
  "data": [
    {"substance": "SARS-CoV-2 spike protein receptor-binding domain (RBD), His6-tagged (domain or fragment)", "values": [
      {"measurement": "EC50", "result": 49.1, "unit": "nM"}
    ]}
  ]
}
